Assay results published in the supplement of paper PMC10567573.

B1: SNX8 (parent)
chain: VVLKLFLSFSGSDVQNKLKESAQC

Variants of: B1
Test: protein stability index of a GFP-peptide fusion (GPS, HEK-293T) (PSI 1-6); higher = more stable
Settings: c terminus: a fixed tail appended
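Further: lentivirally expressed fusions sorted by FACS into six bins by GFP to DsRed ratio, PSI derived from sequencing read proportions per bin multiplied by bin number.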

Compared with VVLNLFLSFSGSDVQNKLKESAQC [K4N], VVLSLFLSFSGSDVQNKLKESAQC [K4S] is lower in protein stability index: 2.76 for the first, 2.38 for the second.

Going from VVLFLFLSFSGSDVQNKLKESAQC [K4F] to VVLELFLSFSGSDVQNKLKESAQC [K4E], the protein stability index rises from 2.27 to 4.58.

Compared with VVLKLFVSFSGSDVQNKLKESAQC [L7V], VVLKLFDSFSGSDVQNKLKESAQC [L7D] is lower in protein stability index: 3.66 for the first, 1.73 for the second.

Compared with VVLKLFGSFSGSDVQNKLKESAQC [L7G], VVLKLFKSFSGSDVQNKLKESAQC [L7K] is higher in protein stability index: 1.43 for the first, 1.84 for the second.

Going from VVLKLFNSFSGSDVQNKLKESAQC [L7N] to VVLKLFQSFSGSDVQNKLKESAQC [L7Q], the protein stability index rises from 1.09 to 1.63.

First: VVLKLFFSFSGSDVQNKLKESAQC [L7F]
Second: VVLKLFESFSGSDVQNKLKESAQC [L7E]
The protein stability index of the first is lower: 2.35 for the first, 2.56 for the second.

Compared with VVLKLFHSFSGSDVQNKLKESAQC [L7H], VVLKLFPSFSGSDVQNKLKESAQC [L7P] is lower in protein stability index: 3.04 for the first, 2.34 for the second.

Compared with VVLKLFLRFSGSDVQNKLKESAQC [S8R], VVLKLFLLFSGSDVQNKLKESAQC [S8L] is higher in protein stability index: 1.92 for the first, 2.45 for the second.

Compared with VVLKLFLPFSGSDVQNKLKESAQC [S8P], VVLKLFLAFSGSDVQNKLKESAQC [S8A] is lower in protein stability index: 5.05 for the first, 1.77 for the second.

Going from VVLKLFLGFSGSDVQNKLKESAQC [S8G] to VVLKLFLWFSGSDVQNKLKESAQC [S8W], the protein stability index rises from 1.91 to 2.64.

Compared with VVLKLFLMFSGSDVQNKLKESAQC [S8M], VVAKLFLSFSGSDVQNKLKESAQC [L3A] is lower in protein stability index: 4.24 for the first, 2.34 for the second.

Compared with VVTKLFLSFSGSDVQNKLKESAQC [L3T], VVDKLFLSFSGSDVQNKLKESAQC [L3D] is higher in protein stability index: 1.2 for the first, 2.44 for the second.

Compared with VVQKLFLSFSGSDVQNKLKESAQC [L3Q], VVCKLFLSFSGSDVQNKLKESAQC [L3C] is lower in protein stability index: 2.61 for the first, 2.4 for the second.

Going from VVKKLFLSFSGSDVQNKLKESAQC [L3K] to VVSKLFLSFSGSDVQNKLKESAQC [L3S], the protein stability index falls from 2.5 to 1.66.

Going from VVNKLFLSFSGSDVQNKLKESAQC [L3N] to VVHKLFLSFSGSDVQNKLKESAQC [L3H], the protein stability index rises from 2.21 to 3.17.

Going from VVGKLFLSFSGSDVQNKLKESAQC [L3G] to VVFKLFLSFSGSDVQNKLKESAQC [L3F], the protein stability index rises from 1.78 to 3.59.

First: VVYKLFLSFSGSDVQNKLKESAQC [L3Y]
Second: VVEKLFLSFSGSDVQNKLKESAQC [L3E]
The protein stability index of the first is higher: 1.94 for the first, 1.57 for the second.

Going from VVVKLFLSFSGSDVQNKLKESAQC [L3V] to VVPKLFLSFSGSDVQNKLKESAQC [L3P], the protein stability index falls from 3.77 to 2.87.

Going from FVLKLFLSFSGSDVQNKLKESAQC [V1F] to AVLKLFLSFSGSDVQNKLKESAQC [V1A], the protein stability index falls from 2.81 to 1.96.

Compared with HVLKLFLSFSGSDVQNKLKESAQC [V1H], PVLKLFLSFSGSDVQNKLKESAQC [V1P] is higher in protein stability index: 1.6 for the first, 1.85 for the second.

Compared with WVLKLFLSFSGSDVQNKLKESAQC [V1W], TVLKLFLSFSGSDVQNKLKESAQC [V1T] is higher in protein stability index: 1.04 for the first, 2.48 for the second.

Going from YVLKLFLSFSGSDVQNKLKESAQC [V1Y] to EVLKLFLSFSGSDVQNKLKESAQC [V1E], the protein stability index falls from 2.69 to 2.47.

Compared with IVLKLFLSFSGSDVQNKLKESAQC [V1I], NVLKLFLSFSGSDVQNKLKESAQC [V1N] is lower in protein stability index: 3.61 for the first, 1.36 for the second.

Going from RVLKLFLSFSGSDVQNKLKESAQC [V1R] to SVLKLFLSFSGSDVQNKLKESAQC [V1S], the protein stability index rises from 2.71 to 3.54.

First: QVLKLFLSFSGSDVQNKLKESAQC [V1Q]
Second: VVLKIFLSFSGSDVQNKLKESAQC [L5I]
The protein stability index of the first is higher: 4.24 for the first, 2.62 for the second.

First: VVLKHFLSFSGSDVQNKLKESAQC [L5H]
Second: VVLKGFLSFSGSDVQNKLKESAQC [L5G]
The protein stability index of the first is higher: 2.57 for the first, 1.55 for the second.

Going from VVLKPFLSFSGSDVQNKLKESAQC [L5P] to VVLKCFLSFSGSDVQNKLKESAQC [L5C], the protein stability index rises from 1.83 to 2.91.

Compared with VVLKDFLSFSGSDVQNKLKESAQC [L5D], VVLKAFLSFSGSDVQNKLKESAQC [L5A] is higher in protein stability index: 2.41 for the first, 2.93 for the second.

First: VVLKKFLSFSGSDVQNKLKESAQC [L5K]
Second: VVLKFFLSFSGSDVQNKLKESAQC [L5F]
The protein stability index of the first is lower: 2.59 for the first, 3.22 for the second.

First: VVLKYFLSFSGSDVQNKLKESAQC [L5Y]
Second: VVLKQFLSFSGSDVQNKLKESAQC [L5Q]
The protein stability index of the first is lower: 1.69 for the first, 2.61 for the second.

Going from VVLKEFLSFSGSDVQNKLKESAQC [L5E] to VVLKSFLSFSGSDVQNKLKESAQC [L5S], the protein stability index falls from 1.79 to 1.1.

First: VVLKRFLSFSGSDVQNKLKESAQC [L5R]
Second: VVLKLPLSFSGSDVQNKLKESAQC [F6P]
The protein stability index of the first is lower: 1.92 for the first, 2.29 for the second.

Compared with VVLKLSLSFSGSDVQNKLKESAQC [F6S], VVLKLNLSFSGSDVQNKLKESAQC [F6N] is higher in protein stability index: 3.13 for the first, 3.24 for the second.

First: VVLKLMLSFSGSDVQNKLKESAQC [F6M]
Second: VVLKLILSFSGSDVQNKLKESAQC [F6I]
The protein stability index of the first is higher: 2.48 for the first, 2.18 for the second.

First: VVLKLDLSFSGSDVQNKLKESAQC [F6D]
Second: VVLKLKLSFSGSDVQNKLKESAQC [F6K]
The protein stability index of the first is lower: 1.17 for the first, 3.48 for the second.

Going from VVLKLELSFSGSDVQNKLKESAQC [F6E] to VVLKLFLSESGSDVQNKLKESAQC [F9E], the protein stability index falls from 1.31 to 1.11.

Compared with VVLKLFLSISGSDVQNKLKESAQC [F9I], VVLKLFLSHSGSDVQNKLKESAQC [F9H] is higher in protein stability index: 3.38 for the first, 3.85 for the second.

First: VVLKLFLSRSGSDVQNKLKESAQC [F9R]
Second: VVLKLFLSKSGSDVQNKLKESAQC [F9K]
The protein stability index of the first is higher: 2.42 for the first, 1.72 for the second.

Compared with VVLKLFLSVSGSDVQNKLKESAQC [F9V], VVLKLFLSASGSDVQNKLKESAQC [F9A] is lower in protein stability index: 3.52 for the first, 3 for the second.

Going from VVLKLFLSPSGSDVQNKLKESAQC [F9P] to VVLKLFLSNSGSDVQNKLKESAQC [F9N], the protein stability index falls from 2.64 to 1.66.

Going from VVLKLFLSTSGSDVQNKLKESAQC [F9T] to VVLKLFLSQSGSDVQNKLKESAQC [F9Q], the protein stability index rises from 2.41 to 4.89.

First: VALKLFLSFSGSDVQNKLKESAQC [V2A]
Second: VELKLFLSFSGSDVQNKLKESAQC [V2E]
The protein stability index of the first is higher: 3.41 for the first, 1.39 for the second.

Compared with VKLKLFLSFSGSDVQNKLKESAQC [V2K], VWLKLFLSFSGSDVQNKLKESAQC [V2W] is higher in protein stability index: 3.26 for the first, 3.59 for the second.

Compared with VSLKLFLSFSGSDVQNKLKESAQC [V2S], VNLKLFLSFSGSDVQNKLKESAQC [V2N] is lower in protein stability index: 2.79 for the first, 1.11 for the second.

Going from VPLKLFLSFSGSDVQNKLKESAQC [V2P] to VDLKLFLSFSGSDVQNKLKESAQC [V2D], the protein stability index falls from 2.19 to 1.4.

Compared with VMLKLFLSFSGSDVQNKLKESAQC [V2M], VCLKLFLSFSGSDVQNKLKESAQC [V2C] is higher in protein stability index: 2.57 for the first, 3.14 for the second.

Going from VLLKLFLSFSGSDVQNKLKESAQC [V2L] to VYLKLFLSFSGSDVQNKLKESAQC [V2Y], the protein stability index rises from 2.09 to 2.24.
